Test results taken from doi:10.1101/2020.05.14.095364 (bioRxiv, 2020).

B1: GST-CGN(1-70) (domain or fragment, canine, UniProt A7YH32 1-70, looked up)
chain: MEQASTMAEPRGPVDHGVQIRFITEPVGNAEMDTLRRGGRRPAKDARANTYGVAVRVQGIAGQPFVVLNS
B2: GFP-tagged hZO-1 (residues 1619-1748), isolated ZU5 fragment (domain or fragment, human, UniProt Q07157 1619-1748, looked up)
chain: SAVEEDEDEDGHTVVATARGIFNSNGGVLSSIETGVSIIIPQGAIPEGVEQEIYFKVCRDNSILPPLDKEKGETLLSPLVMCGPHGLKFLKPVELRLPHCDPKTWQNKCLPGDPNYLVGANCVSVLIDHF

Assays:
[1] = target: B2; experiment: quantitative GST-pulldown supernatant depletion assay
GST-CGN(1-70) = target: B1; experiment: pull-down

| Binder | Kd [1] [nM] | fold binding against the other ZO-1 fragments (GST-CGN(1-70)) [fold] |
| --- | --- | --- |
| B1 | 40.4 |  |
| B2 |  | > 4 |
